In the nanobody polyreactivity screen of Harvey et al. (2022):

Assay: yeast display, Sf9 membrane polyspecificity reagent, FACS + sequencing; frameworks hold sequencing errors
Method in brief: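 A synthetic nanobody library was expressed on Saccharomyces cerevisiae BJ5465 by galactose induction for 36–48 hours. The library was stained for 1 hour at 4 °C with 10% biotinylated, detergent-solubilized Sf9 membrane reagent and enriched with streptavidin microbeads before FACS. Low and high (top ~1%) gates were set on anti-HA fluorescence for expression and streptavidin fluorescence for reagent binding, and each polyreactivity label reflects the gate of origin.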

| Sequence | polyreactivity (PSR sort gate) |
| --- | --- |
| QFQLVESGGGLVQAGGSLRLSCAASGRTFWWYAMGWYRQAPGKERELVAAITSRGTTYYADSVKGRFTISRDNAKNTVYLQMNSLKPEDTAVYYCNAVQATRYTDYDYWGQGTQVTVSS | high polyreactivity |
| QVQLVESGGGLVQAGGSLRISCAASGSTFSRNAMVWYRQAPGKERELVATISRSGRTNYADSVKGRFTISRDNAKNTVYLQMNSLKPEDTAVYYCNAGYRRSYEYWGQCTQVTVSS | low polyreactivity |
| QVQLVESGGGLVQAGGSLRLSGAAWSIFYLNAMGWYRKAPGKERELVAAISSAGSTYYADSVKGRFTISRDNAKNTVYLQMNSLKPEDTAVYYCAAYWYDSPGVTEIWYDYWGQGTQVTVSS | low polyreactivity |
| QVQLVESGGGLVQAGGSLRLSCAASGSTFSSYAMGWYRQAPGKERELVAAISSSGGTSTYADSVKGRFTISRDNAKNTVYLQMNSLKPEDTAVYYCAARQYRRLRDYRHDYWGQGTQVTVSS | high polyreactivity |
| QDQLVESGGGLVQAGGSLRLSCAASGNTFNRYAKGWYRQAPGQERELVAAITSDGSTNYADSVKGRFTISRDNAKNTVYIQKNSMKPEDTAVYYCAAEHSGYPVAFYITGYGYDYCGQGTQVTVSS | low polyreactivity |
| QVQLVESGGGLVQAGGSLRLSCAASGRTFDEYAMGWYRQAPGKERELVDAINSSGNTYYADSVKGRFTISRDNAKNTVYLQMNSLKPEDTAVYYCAVRSYNTIYDDMDYWGQGTQVTVSS | low polyreactivity |
| QVQLVESGGGLVQAGGSLRLSCAASGSIFYPYAMGWYRQAPGKERELVAAISYSGGSTYYADSVKGSFTISRDNAKNTVYLQMNSMKPEDTAVYYCNRRYWRRPYYKYDYWGQGTQVTVSS | high polyreactivity |
| QVQLVESGGGLVQAGGSLRLSCAASGFIFRRNAMGWYRQAPGKERELVAAIRQRGDSTYYADSVKGRFTISRDNAKNTVYLQMNSLKPEDTAVYYCATDHAYFHPEYDYWGQGTQVTVSS | low polyreactivity |
| QVELVESGGGLVQPGGSLRLSCAASGRTLSRYTMGWYRQAPGKERELVAAISTSGSTYYADSVKGRFTISRDNAKNTVYLQMNSLKPEDTAVYYCAADRFGIGGIRGNDYWGQGTQVTVSS | high polyreactivity |
| QVQLVESGGGLVQAGGSLRLSCAASGLIFVINAMGWYRQAPGKERELVATISSRVSTNYADSVKGRFTISRDNAKNTVYLQMNSLKPEDTAVYYCNKGQTVSRGYRLYERFDYWGQGTQVTVSS | low polyreactivity |
| QVQLVESGGGLVQAGGSLRLSCAASGSTFGYYAMGWYRQAPGKERELVAAITSNDGSTNYADSVKGRFTISRDNAKKTVYLQMNSLKPEDTAVYYCNARSFVAVISSFDYWGQGTQVTVSS | low polyreactivity |
| QVQLVESGGRLVQAGGSLRLSCAASGRIILRNAMGWYRQAPGKERELVAAISSSGGRKYYADSVKGRFTISRDNAKNTVYLQMNSLKPEDTAVYYCNARWHGSFDYWGQGTQVTVSS | low polyreactivity |
| QVQLVESGGGLVQAGGSLRLSCAASGSTFFIYAMGWYRQAPGKERELVAAITWRGGTTYYADSVKGRFTISRDNAKNTVYLQMNSLKPEDTAVYYCNADPVDYANIVYYYDYNYWGQGTQVTVSS | low polyreactivity |
| QVQVVESGGGLVQAGGSLRLSCAASGSIFSYNAMGWYRQAPGKERELVATITWSAGSTYYADSVKGRFTISRDNAKNPVYLQMNSLKPEDTAVYYCAKRARESSSVSRVNYWFDYWGQGTQVTVSS | low polyreactivity |
| QVQLVESAGGLVQAGGSLRLSCAASGRTLSNYAMGWYREAPGKERELVAVISQSGGRTYYADSVKGRFTISRDNAKNTVYLQLNSLKPEDTAVYYCNVDISWLRRKFDYWGQVTQVTVSS | low polyreactivity |
| QVQLVESGGGLVQAGGSLRLSCAASGSIRSYAMGWYRQAPGKERELVAAITRSGGSTYYADSVKGRFTISRDNAMNTVYLQMNSLKPEDTAVYYCAARYTYSYPLFGSWGQGTQVTVSS | high polyreactivity |
| QVQLVESGGGLVQAGGSLRLSCAASGRTFYFYAMGWYRQAPGKERELVAAIDFSGDSTYYADSVKGRFTISRDNAKNTVYLQMNSLKPEDTAVYYCAAEIYIGEQPYDYWGQGTQVTVSS | low polyreactivity |
| QVQLVESGGGLVKAGGSLRLISAATGSIFTFYAMGWYRQAPGKERELVATINRIGGNTYYADSVKGRFTISRDNAKNTVYLQMNSLKPEDTAVYYCAAKPTDRGYGYGSWGQGTQVSVSS | low polyreactivity |
| QVQLVESGGGLVQAGGSLRLSCAASGSTSPIYAMGWYRQAPGKERELVAAINGVGSTNYADSVKGRFTISRDNAKNTVYLQMNSLKPEDTAVYYCNTRYSPGYQGTEVDYWGQGTQVTVSS | low polyreactivity |
| QVQLVESAGGLVQAGGSHRLSCAPSGRIFGGNAMGWYRRAPGKERELVAGISRRGGSTYYADSVKGRFTITRDNAKNTVHLQMNSLKPEDTAVYYCNAYYRYSVFAEKYDYWGEGTQVTVSS | high polyreactivity |
| QVQLVESGGGLVQAGGSLRLSCAASGSIFAVYAMGWYRQAPGNERELVAVITRSGGSTYYADSVKGRFTISRDNAKNTVYLQMNSLKPEDTAVYYCAARTGYGYTRYEYWGQGTQVTVSS | high polyreactivity |
| QVQLEESGGCLVQAGGSLRLSCAASGRIFGSYTMGWYRQAPGKERELVAAISDSGGSTYYADSVKGRFSISRDNAKNTVYLQMNSLKPEDTAVYYCNADWSWYNYYDFDYWGQGTQVTVSS | low polyreactivity |

| Sequence | polyreactivity (PSR sort gate) |
| --- | --- |
| QVQLVESGGGLVQAGGSLRLSCAASGRIFKFNAMGWYRQAPGKERELVAATWSGGRTSYADSVKGRFTISRDNAKNTVYLQMNSLKPEDTAVYYCNAADWIVVQYDYWGQGTQVTVSS | low polyreactivity |
| QVQLVESGGGLVQAGGSLRLSCAASGSIFRTYAMGWYIQAPGKERELVAAIRRSGGRTYYADSVKGRFTISRDNAKNTVYLQMNSLKPEDTAVYYCNKRVSKQSKYDYWGQGTQVTVSS | high polyreactivity |
| QVQLVESGGGLVQAGGSLRLSCAASGFTFSTNAMGWYRQAPGKERELVAAISRGGSTNYADSVKGRFTISRDIAKNTVYLQMNSLKPEDTAVYYCNAYQSPDEEEYYWGQGTQVTVSS | low polyreactivity |
| QVQLVESGGGLVQAGGSLRLSCAASGSTFVTYVMGWYRQAPGKERELVADIRRSGGSTYYADSVKGRFTISRDNAKNTVYLQMNSLKPEDTAVYYCAAYQYYYVNEVRRYYYWGQGTQVTVSS | high polyreactivity |
| QVQLVESGGGLVQAGGSLRLSCAASGSIFDYYAMGWYRQAPGKERELVAAIDSGDITYYADSVKGRFTISRDNAKNTFYLQMNRLKPEDTAVYYCAAEGTGYSVGWQYGYWGQGTQVSVSS | low polyreactivity |
| QFQLEESGGGLVQAGGSLRLSCAASGPIFSYNAMGLSRQATGKERELVARINWSSGRTYYADSVKGRFTISRDNAKNTVYLQMNSLKPEDTAVYYCNRVSRGPVGGYYWGQGTQVTESS | high polyreactivity |
| QVQLVESAGGLVQAGGSLRLSCSASGTIIWFYAMGWYRQAPGKERELVAAITRSGGSTYYADSVKGRFTISRDNAKNTVYLQMNSLKPEDTAVYYCAAGTVDYRGYFEMYYWGQGTQVTVSS | low polyreactivity |
| QVQLVESGGGLVQAGGSLRLSCAASGIIFFGYAMGWYRQAPGKERELVADITNGGRTYYADSVKGRFTISRDNAKNTVYLQMNSLKPEDTAVYYCAADAFWEVYYYNALEYDYWGQGTQVTVSS | high polyreactivity |
| QVQLVESGGGLVQAGGSLRLSCAASGLIFGRNAMGWYRQAPGKERELVAAISWSGGSTYYADSVKGRFTISRDNAKNTVYLQMNSLKPEDTAVYYCNRYRYYGSEDDYWGQGTQVTVSS | high polyreactivity |
| QVQLVESGGGLVQAGGSLRLSCAASGRIFYDNTMGWYRQAPGKERELVATISSAASTNYADSVKGRFTISRDNAKNTVYLQMNSLKPEDTAVYYCAAEWSTYGYQVLPVDYDYWGQGTQVTVSS | low polyreactivity |
| QVQLVESGGGLVQAGGSLRLSCAASGFIFDYYAMGWYRQAPGKERELVAVINQSGTSTYYADSVKGRFTISRDNAKNTVYLQMNSLKPEDTAVYYCSVDYGTPVYWDEMYYWGQGTQVTVSS | low polyreactivity |
| KVQLVESGGGLVQAGGSLRLSCAASGITLSYYAMGWYSQAPGKEMELVAAINRGGRTYYADSVTGRFTISRDNAKNTVYLQMNSLKPEDTAVYYCATAYASSQKYYYWGQGTQVTVSS | high polyreactivity |
| QVQLVESVGGLVQAGGSLRLSCAATGFILAPYAMGWYRQSPGKETELVAAITRSGGITYYADSVKGRFTISRDNAKNTVYLQMNSLKPEDTAVYYCAARNYRYRYARAYDYWGQGTQVTVSS | high polyreactivity |
| QVQLVESGGGLVQAGGSLRLSCAASGFIFGDYAMGWYRQAPGKEGELVAAIRGSDSTTYYADSVKGRFTISRDNAKNTVYLQMNSLKPEDTAVYYCAAVGVVPLKKSARVYYWGQGTQVTVSS | low polyreactivity |
| QVQLVESGGGLVQAGGSLRLSCAASGSIFPGYAMGWYRQAPGKERELVAAITFSGGSTYYADSVKGRFTISRDNAKNTVYLLMISLKPEDTAVYYCAAPGWYGGYPSFYYWGQGTQVTVSS | low polyreactivity |
| QVQLVESGGGLVQAGGSLRLSCAASGSIFPVYAMGWYRQAHGKVREFVASIRWRGGSTSYADSVKGRFTISRDNAKNTVYLQMNSLKPEETAVYYCNAVYYSWSQSARFDYWGQGTQVTVSS | low polyreactivity |
| QVQLVESWGGLVQAGGSLRLSCAASGRTFYYYTMGWYRQAPGKEREFVAAISWSGGGTYYADSVKGRFTISRDNAKNTDYLQMNILKPEDTAVYYCATGPRIRYDYWGQGTQVNVSS | high polyreactivity |
| QVQLQESGGGLVQAGGSLRLSCAASGSISRLDYMGWYRQASGKERELVAAIDNGSTTYYADSVKGRLTISRDNAKYTVYLQMNSLKTEDTAVYFCAAVRGRGGTHAYWGQGTQVTVSG | low polyreactivity |
| QVQLVESGGGLVQAGGSLRLSCAASGFTFRRYAMGWYRQAPGKEREFVAAITRSSGRTYYADSVKGRFTISRDNAKNTVYLQMNSLKPEDTAVYYCNRDTSIRHYNYWGQGTQVTVSS | high polyreactivity |
| QVQLVESGGGLVQAGGSLRLSCAASGFTFFNYGRGWSRQAHGKERELVAAISSNGGLTYYADSVKGRFTISRDNAKNTVYLQMNSLKPEDTAVYYCATLYYGRVDYDYWGQGTQVTVSS | high polyreactivity |
| QVQLVESGGGLVHAGGSLRLSSAASGLIFGWYAMGWYRPAPGKEREFVASIRDGGGSTYYADSVNGRFTISRDNANNTVFLEMHSLKPEDSAVYYFAADRYPWHLQYVEYDSDFWGQGTQVTVSS | low polyreactivity |
